# Measured values published in US20230331827A1, “POTASSIUM CHANNEL INHIBITORS” (priority 2017, published 2023).
# Read-outs that look alike come from different tables or passages of the source.
# B1: KB_A12_KTX: kaliotoxin in VL CDR2 of KB_A12, IgG1 (antibody)
# VH: EVQLVESGGGLVRPGGSLRLSCAASGFTFSSYAMSWVRQAPGKGLEWVSAISGSGGSTYYADSVKGRFTISRDNTKNSLYLQMTSLRADDTAFYYCVKDFGPGYGTGWFDYWGPGTLVTVSS
# VL: QSVLTQPPSVSEAPRQRVTITCSGSSSNIGNNAVNWYQQLPGKAPKLLIYAAGRGVEINVKCSGSPQCLKPCKDAGMRFGKCMNRKCHCTPKANSGVSDRFSAAKSGTSASLAINGLRSEDEADYYCAAWDDSLNGYVFGTGTKLTVLGQP
# Columns and labels:
# Format in all cases: cell-based
# human Kv1.1 (huKv1.1) = target: T1, human Kv1.1 (huKv1.1) (Homo sapiens, UniProt Q09470); experiment: QPatch automated patch-clamp, CHO-S cells expressing huKv1.1 (Examples 20-21); conditions: four-point curves of FIG. 33, Table E20
# T1 construct: expressed in transfected cells; host or cells: Freestyle CHO-S
# T1 sequence (Q09470 whole entry): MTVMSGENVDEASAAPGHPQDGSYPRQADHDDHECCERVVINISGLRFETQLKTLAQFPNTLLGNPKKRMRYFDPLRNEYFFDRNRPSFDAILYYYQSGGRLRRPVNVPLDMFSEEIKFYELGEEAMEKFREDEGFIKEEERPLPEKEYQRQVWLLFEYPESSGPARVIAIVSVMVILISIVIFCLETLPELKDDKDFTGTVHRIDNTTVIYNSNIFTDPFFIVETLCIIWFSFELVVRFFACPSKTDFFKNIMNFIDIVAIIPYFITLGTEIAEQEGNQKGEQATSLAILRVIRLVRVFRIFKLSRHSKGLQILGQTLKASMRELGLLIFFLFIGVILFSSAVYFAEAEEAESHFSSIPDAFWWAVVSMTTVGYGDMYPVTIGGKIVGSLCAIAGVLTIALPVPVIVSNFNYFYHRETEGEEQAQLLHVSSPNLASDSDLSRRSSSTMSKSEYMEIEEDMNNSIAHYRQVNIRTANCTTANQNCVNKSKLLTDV
# Experimental: 1. The effect of these KnotBodies on cells expressing human Kv1.1 (huKv1.1) and Kv1.3 (huKv1.3) channels was assessed using QPatch automated patch-clamp platform (Sophion).
# To generate huKv1.1 expressing cells, Freestyle CHO-S cells (Cat. no. R80007, Life Technologies, California, USA) were transfected with pINT50-Tr plasmid encoding huKv1.1 gene using the MaxCyte STX (MaxCyte) transfection system. In pINT50-Tr plasmid, huKv1.1 gene is under the control of a CMV promoter. 64 µg of the plasmid DNA were added to 400 µl of Freestyle CHO-S cells (at a density of 1 × 10^8 cells/ml) in Electroporation Buffer (GE Healthcare Life Sciences, Cat. no. EPB1) in an OC-400 processing assembly (MaxCyte). Following electroporation, the cells were transferred to a well of a 24-well plate containing 200 U/ml DNAse I (Sigma, D4263) and incubated for 20 minutes at 37° C. and 5% CO2. The cells were then transferred into a 100 ml shaker flask containing 20 ml of CD Opticho Media (Thermo Fisher Scientific, Cat.No 12681-011,) supplemented with 8 mM L-Glut (Thermo Fisher Scientific, cat. no. 25030-024). The cells were incubated for 24 hours at 37° C. and 5% CO2 (and 75% humidity and shaking at 800 rpm) prior to testing using automated patch clamp electrophysiology.
# For the testing of Kv1.1 and Kv1.3, CHO-S expressing huKv1.1 (described above) or CHO cells stably expressing huKv1.3 (Charles River Lab) were analysed using the QPatch electrophysiology assay in the presence or absence of the KnotBody fusions. Internal and external physiological solutions were freshly prepared prior to the assay. The extracellular solution contained 145 mM NaCl, 4 mM KC1, 2 mM CaC12, 1 mM MgC12, 10 mM HEPES and 10 mM glucose; the pH was adjusted to 7.4 with NaOH; the osmolarity was ~ 305 mOsm/L. The intracellular solution contained: KF (120 mM), KC1 (20 mM), HEPES (10 mM) EGTA (10 mM); the pH was adjusted to 7.2 with KOH; osmolarity was ~ 300 mOsm/L.
# A series of depolarising voltage (channel activating) pulses were used to monitor the channel currents upon adding control (extracellular solution) to define a control baseline of current activity. To these measured control currents four, ascending concentrations of KnotBodies (including previously described KB_A12_ShK and KB_A12_KTX described in Example 8) or parental antibody isotypes (control molecules) were applied to the external bathing solution. KnotBodies KB_A12 and KB_A07 (EETI-II fusions) were used as isotype controls for the testing. From a holding voltage of -80 mV a depolarising, activating voltage pulses of […] were applied for 300 ms, every 10 seconds. The elicited, maximum outward current values measured during the activating step for each solution exchange period, averaged (n = 3 - 6 for each concentration applied) and plotted as concentration-response curves (see FIG. 33). From these concentration-response curves IC50 values were calculated (see Table E20).
# For the testing of Kv1.1 and Kv1.3, CHO-S expressing huKv1.1 (see Example 20 and below) or CHO cells stably expressing huKv1.3 (Charles River Lab) were analysed using the QPatch electrophysiology assay in the presence or absence of the KnotBody fusions - see details in Examples 19 and 20.
# In addition to the CHO-S transiently expressing huKv1.1 (described in Example 20), CHO-S cells with poly-clonal stable expression of huKv1.1 cells were also made and used in the QPatch electrophysiology assay. To generate the polyclonal stable huKv1.1 cells from the transiently expressing cells described in Example 20, after a 24 hour incubation period the selection antibiotic Puromycin (catalogue no. A1 1138-03, Life Technologies, California, USA) was added to culture media. Then, for the first 14 days puromycin was at 10 µg ml-1 media; at days 15-28 puromycin was at 20 µg ml-1 media. Cell cultures were seeded at 2.5 x 10^5 cells ml^-1 into fresh culture media and puromycin twice per week through this selection growth period. […]
# human Kv1.3 (huKv1.3) = target: T2, human Kv1.3 (huKv1.3) (Homo sapiens, UniProt P22001); experiment: QPatch automated patch-clamp, CHO cells stably expressing human Kv1.3 (Examples 19-21)
# T2 construct: host or cells: CHO
# T2 sequence (P22001 whole entry): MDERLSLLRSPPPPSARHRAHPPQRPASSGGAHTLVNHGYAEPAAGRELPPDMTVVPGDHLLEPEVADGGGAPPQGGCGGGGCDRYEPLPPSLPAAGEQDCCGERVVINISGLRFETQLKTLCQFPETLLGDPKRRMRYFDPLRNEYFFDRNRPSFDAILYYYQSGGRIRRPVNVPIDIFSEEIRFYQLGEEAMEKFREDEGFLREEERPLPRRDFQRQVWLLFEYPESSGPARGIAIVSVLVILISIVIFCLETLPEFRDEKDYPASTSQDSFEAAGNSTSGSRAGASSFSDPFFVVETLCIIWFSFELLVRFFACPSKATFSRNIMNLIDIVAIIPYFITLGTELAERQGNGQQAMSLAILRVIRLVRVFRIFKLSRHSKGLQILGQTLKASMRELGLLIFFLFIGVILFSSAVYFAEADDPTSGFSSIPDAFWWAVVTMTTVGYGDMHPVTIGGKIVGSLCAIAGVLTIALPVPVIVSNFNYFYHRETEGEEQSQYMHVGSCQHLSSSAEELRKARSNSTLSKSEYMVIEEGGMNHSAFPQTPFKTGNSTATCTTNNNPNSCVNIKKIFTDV
# How it was run: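 Whole-cell currents were recorded in extracellular solution of 145 mM NaCl, 4 mM KCl, 2 mM CaCl2, 1 mM MgCl2, 10 mM HEPES, 10 mM glucose (pH 7.4), with a KF/KCl/EGTA pipette solution (pH 7.2). From -80 mV, +30 mV pulses of 300 ms were applied every 10 s, with four ascending KnotBody concentrations added extracellularly. Peak outward current was averaged (n = 3-6) and IC50 fitted from concentration-response curves.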
# huKv1.3 = target: T3, huKv1.3 (Homo sapiens, UniProt P22001); experiment: QPatch automated whole-cell patch-clamp, CHO cells stably expressing huKv1.3 (Example 8); conditions: Kv1.3 channels, IgG KnotBody, Table 11A
# T3 construct: host or cells: CHO
# T3 sequence (P22001 whole entry): as above
# Experimental: Knottin Kv 1.3 and ASIC1a blockers expressed in the KnotBody format (see examples 6 and 7) were tested for their ability to inhibit the function of the ion channel targets. The effect of these KnotBodies on cells expressing the human Kv 1.3 (huKv1.3) or human ASIC1a channels was assessed using QPatch automated whole-cell patch-clamp electrophysiology (Sophion).
# For the testing of Kv1.3, CHO cells stably expressing huKv1.3 (Charles River Lab) were analysed using the QPatch electrophysiology assay in the presence or absence of the KnotBody fusions or the antibody isotypes (negative) controls. Internal and external physiological solutions were freshly prepared prior to the assay. The extracellular solution contained 145 mM NaCl, 4 mM KCl, 2 mM CaCl2, 1 mM MgCl2, 10 mM HEPES and 10 mM glucose; the pH was adjusted to 7.4 with NaOH; the osmolarity was ~ 305 mOsm/L. The intracellular solution contained: KF (120 mM), KCl (20 mM), HEPES (10 mM) and EGTA (10 mM); the pH was adjusted to 7.2 with KOH; osmolarity was ~ 320 mOsm/L.
# A series of depolarising voltage (channel activating) pulses were used to monitor the channel currents upon adding control (extracellular solution) to define a control baseline of current activity. To these measured control currents ascending concentrations of KnotBodies or parental antibody isotypes (control molecules) were applied to the external bathing solution (2.2 µM - 0.5 nM, diluted in the extracellular solution). KnotBodies KB_A12 and KB_A07 (EETI-II fusions) were used as isotype controls for the testing. From a holding voltage of -80 mV a depolarising, activating voltage pulses of +30 or +80 mV were applied for 300 ms, every 5 or 10 seconds. The elicited, maximum outward current values measured during the activating step for each solution exchange period were averaged (n = 3 - 8 for each concentration applied) and plotted as concentration-response curves. KB_A07_ShK, KB_A12_ShK and KB_A07_Kaliotoxin (KTX) fusion proteins all inhibited the huKv1.3 currents in a concentration dependent manner with IC50S of approximately 20 nM, 40 nM and 900 nM respectively.
molecule,measurement,setting,value
B1,IC50,human Kv1.1 (huKv1.1),4800 nM
same,Fold difference,"human Kv1.3 (huKv1.3); Kv1.1 IC50 over Kv1.3 IC50, Table E20",3
same,IC50,"human Kv1.3 (huKv1.3); four-point curves of FIG. 33, Table E20, read-out: Kv1.3 IC50",1540 nM
same,IC50,"human Kv1.3 (huKv1.3); huKv1.3, four-point curves of FIG. 32, Table E19, read-out: IC50",430 nM
same,IC50,huKv1.3,> 10000 nM
